From patent EP4813394A2 (Albert-Ludwigs-Universität Freiburg, dated 2026) come the findings set out here.

This assay has as its target T1, TRMT112 (KMT9beta) (Homo sapiens, UniProt Q9UI30 1-125).
T1 construct: TRMT112 is untagged when co-expressed with His-C21orf127 and His-tagged when expressed alone (His-TRMT112); also called His-TRMT112
T1 sequence: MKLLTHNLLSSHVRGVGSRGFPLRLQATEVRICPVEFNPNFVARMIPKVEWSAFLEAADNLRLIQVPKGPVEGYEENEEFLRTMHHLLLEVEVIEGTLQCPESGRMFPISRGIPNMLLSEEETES
Nature of the assay: gel filtration chromatography (Superose 6 10/300 GL). (In general: In gel filtration, larger molecules generally elute earlier.)

B1: C21orf127(N122A) (enzyme)
chain: MAGENFATPFHGHVGRGAFSDVYEPAEDTFLLLDALEAAAAELAGVEICLEVGSGSGVVSAFLASMIGPQALYMCTDINPEAAACTLETARCNKVHIQPVITDLVKGLLPRLTEKVDLLVFAPPYVVTPPQEVGSHGIEAAWAGGRNGREVMDRFFPLVPDLLSPRGLFYLVTIKENNPEEILKIMKTKGLQGTTALSRQAGQETLSVLKFTKS
notes: Co-expressed with TRMT112 as His-C21orf127(N122A)/TRMT112; also called KMT9alpha(N122A); His-C21orf127(N122A); not shown: N-terminal His tag from pDEST17 or pET-Duet1
Regarding B1, the binding result is reported as “binds”.
